Laboratory results reported in patent US20250170255A1 (Daiichi Sankyo, published 2025).
Each block holds one binder with its values, some of them ahead of it.

Experiments:
[1] = target: T1, biotinylated human TROP2 antigen (human, UniProt P09758 27-274, C-terminal Avi tag sequence biotinylated); experiment: ELISA, immobilised biotinylated human TROP2 antigen, anti-FLAG-HRP detection; without MMP1
T1 construct: extracellular domain
T1 sequence (looked up): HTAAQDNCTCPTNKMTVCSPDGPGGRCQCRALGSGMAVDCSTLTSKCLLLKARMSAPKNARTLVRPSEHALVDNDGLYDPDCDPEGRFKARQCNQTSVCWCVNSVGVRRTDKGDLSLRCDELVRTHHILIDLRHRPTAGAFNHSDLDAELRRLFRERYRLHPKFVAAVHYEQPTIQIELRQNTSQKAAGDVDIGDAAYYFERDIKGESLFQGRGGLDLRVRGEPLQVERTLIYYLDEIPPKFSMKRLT
Description: (§1) NeutrAvidin (Thermo Fisher Scientific) diluted to 1 μg/ml with PBS was added at 50 μl/well to a 96-well Maxi-sorp plate (Black, Nunc) and immobilized at 4° C. overnight. The plate was washed with PBS containing 0.05% (w/v) Tween-20 (BioRad) (ELISA buffer) and then blocked with Blocker Casein (Thermo Fisher Scientific). The plate was washed with ELISA buffer, the biotinylated human TROP2 antigen (Accession Number: P09758; the extracellular domain was purified by the method known to a person skilled in the art and the C-terminal Avi tag sequence was then biotinylated) diluted to 1 μg/ml with PBS was added at 50 μl/well, and the resultant was then agitated for 30 minutes at room temperature. […] The plate was washed with ELISA buffer, the SuperSignal Pico ELISA chemiluminescent substrate (Thermo Fisher Scientific) was added, and chemiluminescence 10 minutes thereafter was then assayed using a plate reader.
(§2) The resultant was then added to the plate comprising the human TROP2 antigen immobilized thereon at 50 μl/well. The bound scFv was detected using the HRP-labeled anti-FLAG antibody (Sigma-Aldrich) diluted to 5,000-fold with ELISA buffer.

[2] = target: T1, biotinylated human TROP2 antigen; experiment: ELISA, immobilised biotinylated human TROP2 antigen, anti-FLAG-HRP detection; after MMP1 pre-treatment
Description: as §1, §2

[3] = target: T1, biotinylated human TROP2 antigen; experiment: ELISA, immobilised biotinylated human TROP2 antigen, anti-FLAG-HRP detection; without MMP1; remark: listed apart in the source
Description: as §1, §2

[4] = target: T1, biotinylated human TROP2 antigen; experiment: ELISA, immobilised biotinylated human TROP2 antigen, anti-FLAG-HRP detection; after MMP1 pre-treatment; remark: listed apart in the source
Description: as §1, §2

[5] = target: T1, biotinylated human TROP2 antigen; experiment: ELISA, immobilised biotinylated human TROP2 antigen, chemiluminescence; without uPA
Description: (§3) NeutrAvidin (Thermo Fisher Scientific) diluted to 1 μg/ml with PBS was added at 50 μl/well to a 96-well Maxi-sorp plate (Black, Nunc) and immobilized at 4° C. overnight. The plate was washed with PBS containing 0.05% (w/v) Tween-20 (BioRad) (ELISA buffer) and then blocked with Blocker Casein (Thermo Fisher Scientific). The plate was washed with ELISA buffer, the biotinylated human TROP2 antigen (Accession Number: P09758; the extracellular domain was purified by the method known to a person skilled in the art and the C-terminal Avi tag sequence was then biotinylated) diluted to 1 μg/ml with PBS was added at 50 μl/well, and the resultant was then agitated for 30 minutes at room temperature. […] The plate was washed with ELISA buffer, 50 μl of the horseradish peroxidase (HRP)-labeled anti-human IgG antibody (Jackson Immuno Research Laboratories) diluted to 2,500-fold with ELISA buffer was added, and the resultant was then agitated for 30 minutes at room temperature. The plate was washed with ELISA buffer, the SuperSignal Pico ELISA chemiluminescent substrate (Thermo Fisher Scientific) was added, and chemiluminescence 10 minutes thereafter was then assayed using a plate reader.

[6] = target: T1, biotinylated human TROP2 antigen; experiment: ELISA with and without uPA
[7] = target: T1, biotinylated human TROP2 antigen; experiment: ELISA, immobilised biotinylated human TROP2 antigen, chemiluminescence; after uPA pre-treatment (mask linker cleaved)
Description: as §3

[8] = target: T1, biotinylated human TROP2 antigen; experiment: ELISA, immobilised biotinylated human TROP2 antigen, chemiluminescence; pH 5.5
Description: (§4) The plate was washed with PBS containing 0.05% (w/v) Tween-20 (BioRad) (ELISA buffer) and then blocked with Blocker Casein (Thermo Fisher Scientific). The plate was washed with ELISA buffer, the biotinylated human TROP2 antigen (Accession Number: P09758; the extracellular domain was purified by the method known to a person skilled in the art and the C-terminal Avi tag sequence was then biotinylated) diluted to 1 μg/ml with PBS was added at 50 μl/well, and the resultant was then agitated for 30 minutes at room temperature. […] The plate was washed with ELISA buffer, 50 μl of the horseradish peroxidase (HRP)-labeled anti-human IgG antibody (Jackson Immuno Research Laboratories) diluted to 2,500-fold with ELISA buffer was added, and the resultant was then agitated for 30 minutes at room temperature. The plate was washed with ELISA buffer, the SuperSignal Pico ELISA chemiluminescent substrate (Thermo Fisher Scientific) was added, and chemiluminescence 10 minutes thereafter was then assayed using a plate reader. […]

[9] = target: T1, biotinylated human TROP2 antigen; experiment: ELISA, immobilised biotinylated human TROP2 antigen, chemiluminescence; pH 7.5
[10] = target: T1, biotinylated human TROP2 antigen; experiment: ELISA, immobilised biotinylated human TROP2 antigen, chemiluminescence; pH 5.5; remark: listed apart in the source
[11] = target: T1, biotinylated human TROP2 antigen; experiment: ELISA, immobilised biotinylated human TROP2 antigen, chemiluminescence; pH 6.0
[12] = target: T1, biotinylated human TROP2 antigen; experiment: ELISA, immobilised biotinylated human TROP2 antigen, chemiluminescence; pH 7.5; remark: listed apart in the source
[13] = target: T1, biotinylated human TROP2 antigen; experiment: as above; remark: listed apart in the source
Description: as §4

[14] = target: T1, biotinylated human TROP2 antigen; experiment: ELISA, immobilised biotinylated human TROP2 antigen, chemiluminescence; pH 5.5; remark: listed apart in the source
Description: as §4

[15] = target: T1, biotinylated human TROP2 antigen; experiment: ELISA with and without MMP1
[16] = target: T1, biotinylated human TROP2 antigen; experiment: ELISA, immobilised biotinylated human TROP2 antigen, chemiluminescence; after MMP1 pre-treatment (mask linker cleaved)
[17] = target: T1, biotinylated human TROP2 antigen; experiment: ELISA, immobilised biotinylated human TROP2 antigen, chemiluminescence; pH 5.5; remark: listed apart in the source
[18] = target: T1, biotinylated human TROP2 antigen; experiment: ELISA pH 7.5 against pH 5.5
[19] = target: T1, biotinylated human TROP2 antigen; experiment: ELISA, immobilised biotinylated human TROP2 antigen, chemiluminescence; pH 7.5; remark: listed apart in the source
[20] = target: T1, biotinylated human TROP2 antigen; experiment: as above; remark: listed apart in the source
Description: as §4

[21] = target: T1, biotinylated human TROP2 antigen; experiment: ELISA, immobilised biotinylated human TROP2 antigen, chemiluminescence; pH 6.5
[22] = target: T1, biotinylated human TROP2 antigen; experiment: ELISA, immobilised biotinylated human TROP2 antigen, chemiluminescence; pH 7.5; remark: listed apart in the source

B1: HT1-11-scFv-HL (scFv)
scFv: ADVNSQVQLVQSGAEVKKPGASVKVSCKASGYTFTTAGMQWVRQAPGQGLEWMGWINTHSGVPKYAEDFKGRVTISADTSTSTAYLQLSSLKSEDTAVYYCARSGFGSSYWYFDVWGQGTLVTVSSGGGGSGGGGSGGGGSDIQMTQSPSSLSASVGDRVTITCKASQDVSTAVAWYQQKPGKAPKLLIYSASYRYTGVPSRFSGSGSGTDFTLTISSLQPEDFAVYYCQQHYITPLTFGQGTKLEIKRGAPSGDYKDDDDKGAAAHHHHHH
notes: Unmasked scFv (VH-VL) expressed in E. coli, purified by Ni Sepharose; Full-length entry
- EC50 (read off the curve) [1]: ~5 nM
- EC50 (read off the curve) [2]: ~5 nM

B2: HT1-11-scFv-LH (scFv)
scFv: ADVNSDIQMTQSPSSLSASVGDRVTITCKASQDVSTAVAWYQQKPGKAPKLLIYSASYRYTGVPSRFSGSGSGTDFTLTISSLQPEDFAVYYCQQHYITPLTFGQGTKLEIKRGGGGSGGGGSGGGGSQVQLVQSGAEVKKPGASVKVSCKASGYTFTTAGMQWVRQAPGQGLEWMGWINTHSGVPKYAEDFKGRVTISADTSTSTAYLQLSSLKSEDTAVYYCARSGFGSSYWYFDVWGQGTLVTVSSGAPSGDYKDDDDKGAAAHHHHHH
notes: Unmasked scFv (VL-VH) expressed in E. coli; Full-length entry
- EC50 (read off the curve) [3]: ~3 nM
- EC50 (read off the curve) [4]: ~3 nM

B5: anti-TROP2 masked antibody MHT1811 (antibody)
heavy: not shown
light: DIQMTQSPSSLSASVGDRVTITCKASQDVSTAVAWYQQKPGKAPKLLIYSASYRYTGVPSRFSGSGSGTDFTLTISSLQPEDFAVYYCQQHYITPLTFGQGTKLEIKRTVAAPSVFIFPPSDEQLKSGTASVVCLLNNFYPREAKVQWKVDNALQSGNSQESVTEQDSKDSTYSLSSTLTLSKADYEKHKVYACEVTHQGLSSPVTKSFNRGEC
notes: Full-length entries
- EC50 ratio (without the addition of MMP1/with the addition of MMP1) [15]: 48.4
- EC50 (read off the curve) [16]: ~0.6 nM
- EC50 (read off the curve) [17]: ~1 nM
- EC50 ratio (neutral pH conditions/acidic pH conditions) [18]: 28.1
- EC50 (read off the curve) [19]: ~30 nM

B6: anti-TROP2 masked antibody MHT1806 (antibody, human IgG1, kappa)
heavy: not shown
light: B5 light
- EC50 (read off the curve) [20]: ~200 nM
- EC50 (read off the curve) [21]: ~50 nM
- EC50 ratio (neutral pH conditions/acidic pH conditions) [18]: 38.8
- EC50 (read off the curve) [22]: ~200 nM

The next lines start with the values.

- EC50 (read off the curve) [5]: ~90 nM
- EC50 ratio of binding intensity (without uPA / with uPA) [6]: 83
- EC50 (read off the curve) [7]: ~1 nM
B3: anti-TROP2 masked antibody MHT1009 (antibody)
heavy: not shown
light: B5 light
notes: Full-length entries

- EC50 (read off the curve) [8]: ~1 nM
- EC50 (read off the curve) [9]: ~20 nM
- EC50 (read off the curve) [10]: ~1 nM
- EC50 (read off the curve) [11]: ~4 nM
- EC50 (read off the curve) [12]: ~30 nM
- EC50 (read off the curve) [13]: ~50 nM
- EC50 (read off the curve) [14]: ~2 nM
B4: anti-TROP2 masked antibody MHT1808 (antibody)
heavy: not shown
light: B5 light
notes: His cluster linker; Full-length entries
